Data on one molecule can be found in article PMC6328183 (2019).

In the experiment the target is FuBc protein (recombinant protein of the fusion loop and Bc loop of domain II of dengue envelope protein with … (DENV-2 (of the template structure PDB …, UniProt P12823))). Description: SPR.

B1: 3IXY scFv antibody (VH and VL of the anti-fusion loop dengue E53 Fab, PDB 3IXY, joined by a (G4S)3 linker) (scFv, V domains shown)
VH: EVKLVESGGGLVLPGGSLRLSCATSGFTFTDYYMTWVRQPPGKALEWLGFIGNKANDYTTEYSASVKGRFTISRDDSQSILYLQMSTLRAEDRATYYCATVYGNYPYFDVWGAGTTVAVSS
VL: QIVLTQSPAIMSASPGEKVTMTCSASSSVSYMHWYQQKSGTSPKIWIYESSKLASGVPVRFSGSGSGTSYSLTISSMEAEDVATYYCQQWSSHPHPLTFGAGTKLELK
As to B1, the koff is 0.0077 s⁻¹.
